Reference: patent EP0699075B1
One block for each substance: values may come before it.

Assays:
[1] = molecular target: cell-surface tissue factor on rat vascular smooth muscle cells (rat) (UniProt P42533); experiment: cell-based or functional assay
[2] = molecular target: purified recombinant soluble tissue factor (UniProt P13726); experiment: cell-based or functional assay
Chain of UniProt P13726 (P13726 33-251 limits assumed): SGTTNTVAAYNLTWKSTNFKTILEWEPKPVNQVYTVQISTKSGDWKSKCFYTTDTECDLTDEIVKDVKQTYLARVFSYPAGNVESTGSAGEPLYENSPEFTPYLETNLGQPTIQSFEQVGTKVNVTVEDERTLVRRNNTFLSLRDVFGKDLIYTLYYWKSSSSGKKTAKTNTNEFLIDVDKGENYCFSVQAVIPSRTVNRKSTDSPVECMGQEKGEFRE

Chain of UniProt P42533 (P42533 29-295): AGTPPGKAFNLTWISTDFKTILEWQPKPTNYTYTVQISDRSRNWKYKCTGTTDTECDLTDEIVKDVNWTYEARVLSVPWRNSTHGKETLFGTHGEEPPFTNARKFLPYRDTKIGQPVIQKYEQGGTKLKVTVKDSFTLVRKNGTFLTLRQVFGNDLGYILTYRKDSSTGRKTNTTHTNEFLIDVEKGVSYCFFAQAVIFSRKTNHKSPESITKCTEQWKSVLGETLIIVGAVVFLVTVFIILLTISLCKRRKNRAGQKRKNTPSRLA

OD405, Factor Xa chromogenic activity (S-2222) on rat smooth muscle cells, DEGR-Factor VIIa 0.00 nM coincubated with 100 nM Factor VIIa [1]: 0.208 OD405
OD405, Factor Xa chromogenic activity (S-2222) on rat smooth muscle cells, DEGR-Factor VIIa 0.39 nM coincubated with 100 nM Factor VIIa [1]: 0.176 OD405
OD405, Factor Xa chromogenic activity (S-2222) on rat smooth muscle cells, DEGR-Factor VIIa 1.56 nM coincubated with 100 nM Factor VIIa [1]: 0.116 OD405
OD405, Factor Xa chromogenic activity (S-2222) on rat smooth muscle cells, DEGR-Factor VIIa 6.25 nM coincubated with 100 nM Factor VIIa [1]: 0.073 OD405
OD405, Factor Xa chromogenic activity (S-2222) on rat smooth muscle cells, DEGR-Factor VIIa 25.00 nM coincubated with 100 nM Factor VIIa [1]: 0.026 OD405
OD405, Factor Xa chromogenic activity (S-2222) on rat smooth muscle cells, DEGR-Factor VIIa 100.00 nM coincubated with 100 nM Factor VIIa [1]: 0.014 OD405
OD405, Factor Xa chromogenic activity (S-2222) on serum-stimulated rat smooth muscle cells, 10 nM Factor VIIa + 100 nM DEGR-Factor VIIa [1]: 0.073 OD405
inhibition of chromogenic activity at a 1:1 molar ratio of DEGR-Factor VIIa:Factor VIIa on rat smooth muscle cells [1]: 95%
OD405, Factor Xa chromogenic activity (S-2222), DEGR-Factor VIIa 0 nM with 100 nM Factor VIIa and soluble tissue factor (cell read as 0 | 0.810) [2]: 0.81 OD405
OD405, Factor Xa chromogenic activity (S-2222), DEGR-Factor VIIa 5 nM with 100 nM Factor VIIa and soluble tissue factor (cell read as 5 | 0.750) [2]: 0.75 OD405
OD405, Factor Xa chromogenic activity (S-2222), DEGR-Factor VIIa 10 nM with 100 nM Factor VIIa and soluble tissue factor (cell read as 10 | 0.609) [2]: 0.609 OD405
OD405, Factor Xa chromogenic activity (S-2222), DEGR-Factor VIIa 20 nM with 100 nM Factor VIIa and soluble tissue factor (cell read as 20 | 0.296) [2]: 0.296 OD405
OD405, Factor Xa chromogenic activity (S-2222), DEGR-Factor VIIa 40 nM with 100 nM Factor VIIa and soluble tissue factor (cell read as 40 | 0.167) [2]: 0.167 OD405
OD405, Factor Xa chromogenic activity (S-2222), DEGR-Factor VIIa 80 nM with 100 nM Factor VIIa and soluble tissue factor (cell read as 80 | 0.083) [2]: 0.083 OD405
OD405, Factor Xa chromogenic activity (S-2222), DEGR-Factor VIIa 160 nM with 100 nM Factor VIIa and soluble tissue factor (cell read as 160 | 0.055) [2]: 0.055 OD405
Substance: DEGR-Factor VIIa (enzyme)

OD405, Factor Xa chromogenic activity (S-2222) on PDGF-BB-stimulated rat smooth muscle cells, 10 nM Factor VIIa, cells washed before Factor X was added [1]: 0.36 OD405
OD405, Factor Xa chromogenic activity (S-2222) on rat smooth muscle cells stimulated with 10% FCS, 10 nM Factor VIIa, cells washed before Factor X was added [1]: 0.342 OD405
OD405, Factor Xa chromogenic activity (S-2222) on rat smooth muscle cells, Factor VIIa 0.10 nM [1]: 0.005 OD405
OD405, Factor Xa chromogenic activity (S-2222) on rat smooth muscle cells, Factor VIIa 0.39 nM [1]: 0.025 OD405
OD405, Factor Xa chromogenic activity (S-2222) on rat smooth muscle cells, Factor VIIa 1.56 nM [1]: 0.058 OD405
OD405, Factor Xa chromogenic activity (S-2222) on rat smooth muscle cells, Factor VIIa 6.25 nM [1]: 0.111 OD405
OD405, Factor Xa chromogenic activity (S-2222) on rat smooth muscle cells, Factor VIIa 25.00 nM [1]: 0.154 OD405
OD405, Factor Xa chromogenic activity (S-2222) on rat smooth muscle cells, Factor VIIa 100.00 nM [1]: 0.208 OD405
OD405, Factor Xa chromogenic activity (S-2222) on serum-stimulated rat smooth muscle cells, 10 nM Factor VIIa alone [1]: 0.342 OD405
OD405, Factor Xa chromogenic activity (S-2222) on unstimulated rat smooth muscle cells (Intrinsic), 10 nM Factor VIIa, cells washed before Factor X was added [1]: 0.247 OD405
Substance: recombinant human Factor VIIa (enzyme)
